The assay has as its target Shh-AP fusion protein (Sonic hedgehog fused to alkaline phosphatase). Put plainly: ligand-receptor binding study, Scatchard analysis (FIG. 3).

Shh-AP fusion protein (Sonic hedgehog fused to alkaline phosphatase), sequence (Q62226 25-198): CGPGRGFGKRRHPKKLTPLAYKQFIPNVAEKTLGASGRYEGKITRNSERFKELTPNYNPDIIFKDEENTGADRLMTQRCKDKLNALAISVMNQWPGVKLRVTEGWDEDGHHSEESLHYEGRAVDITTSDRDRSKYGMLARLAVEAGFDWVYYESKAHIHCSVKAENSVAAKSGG

B1: murine HIP polypeptide (mouse hedgehog interacting protein) (receptor)
chain: LGFFEGDAKFGERSEGSGARRRRCLNGNPPKRLKRRDRRVMSQLELLSGGEILCGGFYPRVSCCLQSDSPGLGRLENKIFSATNNSECSRLLEEIQCAPCSPHSQSLFYTPERDVLDGDLALPLLCKDYCKEFFYTCRGHIPGLLQTTADEFCFYYARKDAGLCFPDFPRKQVRGPASNYLGQMEDYEKVGGISRKHKHNCLCVQEVMSGLRQPVSAVHSGDGSHRLFILEKEGYVKILTPEGELFKEPYLDIHKLVQSGIKGGDERGLLSLAFHPNYKKNGKLYVSYTTNQERWAIGPHDHILRVVEYTVSRKNPHQVDVRTARVFLEVAELHRKHLGGQLLFGPDGFLYIILGDGMITLDDMEEMDGLSDFTGSVLRLDVDTDMCNVPYSIPRSNPHFNSTNQPPEVFAHGLHDPGRCAVDRHPTDININLTILCSDSNGKNRSSARILQIIKGRDYESEPSLLEFKPFSNGPLVGGFVYRGCQSERLYGSYVFGDRNGNFLTLQQSPVTKQWQEKPLCLGASSSCRGYFSGHILGFGEDELGEVYILSSSKSMTQTHNGKLYKIVDPKRPLMPEECRVTVQPAQPLTSDCSRLCRNGYYTPTGKCCCSPGWEGDFCRIAKCEPACRHGGVCVRPNKCLCKKGYLGPQCEQVDRNVRRVTRAGILDQIIDMTSYLLDLTSYIV
In the case of B1, the Kd (usually the constant that tells how readily two partners part at equilibrium) worked out at 1 nM.

For the origin of these results see US20030143595A1.
